Measurements taken from the supplement of paper PMC7877785.
± gives the uncertainty stated by the source.

Assay: self-splicing fitness, log relative to wild type (ln ratio); higher = more splicing; Tetrahymena group I intron in knt gene, E. coli kanamycin selection, DiMSum; sequences stand for … in CUCUCU…GGAGGGAAAAGUUAUCAGGCAUGCACCUGGUAGCUAGUCUUUAAACCAAUAGAUUGCAUCGGUUUAAAAGGCAAGACCGUCAAAUUGCGGGAAAGGGGUCAACAGCCGUUCAGUACCAAGUCUCAGGGGAAACUUUGAGAUGGCCUUGCAAAGGGUAUGGUAAUAAGCUGACGGACAUGGUCCUAACCACGCAGCCAAGUCCUAAGUCAACAGAUCUUCUGUUGAUAUGGAUGCAGUUCACAGACUAAAUGUCGGUCGGGGAAGAUGUAUUCUUCUCAUAAGAUAUAGUCGGACCUCUCCUUAAUGGGAGCUAGCGGAUGAAGUGAUGCAACACUGGAGCCGCUGGGAACUAAUUUGUAUGCGAAAGUAUAUUGAUUAGUUUUGGAGUACUCGUGGUCG
Method in brief: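 Six replicate transformations of E. coli BL21(DE3) with a pET-22b(+) library were grown overnight at 37°C or 30°C. The library randomised all eight P1ex-region intron nucleotides, the intron lying in the knt kanamycin-resistance gene, and plates were LB agar with or without 25 μg/mL kanamycin plus 100 μg/mL carbenicillin, 50 μM IPTG and 0.2% rhamnose. Pooled colonies were amplicon-sequenced on an Illumina HiSeq 2500, and fitness is the DiMSum error-weighted combination of wild-type-normalised replicate fold changes, kanamycin versus none.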

| Sequence | self-splicing fitness (ln) (30 °C) | self-splicing fitness (ln) (37 °C) |
| --- | --- | --- |
| CGCAAGCAAUAUUACGGACA | -0.905 ± 0.14 | -0.195 ± 0.14 |
| CGCAAGCAAUAUUACGGCGG | -0.329 ± 0.073 | 0.31 ± 0.09 |
| CGCAAGCAAUAUUACGUAAC | -3.76 ± 0.23 | -2.31 ± 0.19 |
| CGCAAGCAAUAUUACGUAUC | -3.14 ± 0.13 | -2.33 ± 0.19 |
| CGCAAGCAAUAUUACGUCAC | -3.45 ± 0.21 | -2.12 ± 0.23 |
| CGCAAGCAAUAUUACGUGAC | -2.74 ± 0.2 | -2.5 ± 0.3 |
| CGCAAGCAAUAUUACGUUCA | -1.33 ± 0.1 | -0.636 ± 0.098 |
| CGCCAGCAAUAUUACGAACA | -3.55 ± 0.26 | -0.716 ± 0.11 |
| CGCCAGCAAUAUUACGAUUA | -2.37 ± 0.15 | -2.68 ± 0.21 |
| CGCCAGCAAUAUUACGCAAC | -3.25 ± 0.27 | -3.44 ± 0.42 |
| CGCCAGCAAUAUUACGCACG | -1.66 ± 0.11 | -1.47 ± 0.17 |
| CGCCAGCAAUAUUACGCAGC | -2.96 ± 0.34 | -2.4 ± 0.38 |
| CGCCAGCAAUAUUACGCAGG | -2.06 ± 0.2 | -2.56 ± 0.26 |
| CGCCAGCAAUAUUACGCCCU | -1.93 ± 0.14 | -0.637 ± 0.13 |
| CGCCAGCAAUAUUACGCGUC | -3.41 ± 0.17 | -2.33 ± 0.15 |
| CGCCAGCAAUAUUACGGAGU | -3.79 ± 0.12 | -2.7 ± 0.13 |
| CGCCAGCAAUAUUACGGCCA | -0.294 ± 0.11 | 0.0865 ± 0.13 |
| CGCCAGCAAUAUUACGGGCU | -3.79 ± 0.18 | -2.04 ± 0.12 |
| CGCCAGCAAUAUUACGUACU | -2.58 ± 0.16 | -2.02 ± 0.2 |
| CGCCAGCAAUAUUACGUGUU | -3.08 ± 0.14 | -3.21 ± 0.18 |

| Sequence | self-splicing fitness (ln) (30 °C) | self-splicing fitness (ln) (37 °C) |
| --- | --- | --- |
| CGCGAGCAAUAUUACGAAGA | – | -0.985 ± 0.39 |
| CGCGAGCAAUAUUACGAGCU | -3.72 ± 0.37 | -2.22 ± 0.27 |
| CGCGAGCAAUAUUACGAGUG | -3.46 ± 0.31 | -1.78 ± 0.2 |
| CGCGAGCAAUAUUACGAGUU | -3.3 ± 0.2 | -3.19 ± 0.26 |
| CGCGAGCAAUAUUACGAUCA | -2.91 ± 0.19 | -2.04 ± 0.16 |
| CGCGAGCAAUAUUACGCAAA | -2.95 ± 0.38 | -3.4 ± 0.43 |
| CGCGAGCAAUAUUACGCACA | -2.3 ± 0.19 | -1.16 ± 0.18 |
| CGCGAGCAAUAUUACGCCAC | -3.41 ± 0.47 | – |
| CGCGAGCAAUAUUACGCCAU | -3.53 ± 0.24 | -3.92 ± 0.42 |
| CGCGAGCAAUAUUACGCCUC | -1.53 ± 0.44 | -1.38 ± 0.43 |
| CGCGAGCAAUAUUACGCGGG | -3.4 ± 0.17 | -3.6 ± 0.25 |
| CGCGAGCAAUAUUACGCUAG | – | -1.39 ± 0.29 |
| CGCGAGCAAUAUUACGCUCU | – | -0.833 ± 0.33 |
| CGCGAGCAAUAUUACGCUUC | – | -1.44 ± 0.45 |
| CGCGAGCAAUAUUACGGACA | – | -0.573 ± 0.34 |
| CGCGAGCAAUAUUACGGAGU | -4.33 ± 0.46 | -2.08 ± 0.21 |
| CGCGAGCAAUAUUACGGAUU | -3.12 ± 0.17 | -2.51 ± 0.25 |
| CGCGAGCAAUAUUACGGCCG | -3.16 ± 0.3 | -1.35 ± 0.29 |
| CGCGAGCAAUAUUACGUAGC | -3.66 ± 0.3 | -2.5 ± 0.32 |
| CGCGAGCAAUAUUACGUAUG | -1.62 ± 0.13 | -1.2 ± 0.19 |
